Results as given in paper PMC3715477.

Target: CC-Gp047 (residues 1040–1365 of Gp047, putative receptor binding protein of C. jejuni phage NCTC12673) (Campylobacter jejuni phage NCTC12673)
Test: SDS-resistant oligomers (method not named; data not shown); data not shown; oligomers called SDS-resistant; construct and conditions not told

CC-Gp047 (residues 1040–1365 of Gp047, putative receptor binding protein of C. jejuni phage NCTC12673) (domain or fragment)
stoichiometry N: > 3
